Data set [1] is described as follows: Labelling of the kidney in the same rats (fluorescence microscopy of kidney sections). It is filed as in vivo. Particulars: 200 μg into the jugular vein, 60 minutes, labelling linked to partial elimination of the products. On the procedure: Briefly, four rats (300 g each) were anaesthetized, intubated and ventilated. Myocardial ischaemia was triggered by a transient occlusion of the coronary artery. After 30 minutes of occlusion, the coronary artery was reperfused for one hour.
At the end of the reperfusion period, the AFIM-fluorescein peptides of Example 6 were injected into the jugular vein in an amount of 200 μg of peptide for each of two of the rats in a total volume of 1 ml.
By way of comparison, 200 μg of annexin 5-fluorescein (compounds of the prior art) were injected under the same conditions for each of the other two rats in a total volume of 1 ml.
The rats were sacrificed after 60 minutes.
Five organs were stored for this study: the heart, the lung, the kidney, the liver and the brain. They were washed and rinsed in the presence of formalin. […]
A few sections were stained with haematoxylin. The sections were examined under a fluorescence microscope and the adjacent sections stained with haematoxylin were examined with a visible light microscope. The sections stained with haematoxylin (labelled H1 and H2 respectively in the appended FIGS. 1 and 2) allow visualisation of the architecture of the tissues and fluorescence microscopy to detect the labelling with AFIM-fluorescein (AFIM-F) or with annexin 5-fluorescein (A5-F).

For data set [2] the following is noted: prior art observation; cited from earlier work.

For the substance “annexin 5: prior art annexin protein that binds anionic phospholipids in a calcium-dependent manner”, the “Labelling of the entire renal tissue” value in data set [1] is recorded as “strongly labelled”. The Toxicity result in data set [2] was “renal toxicity”.

The values are drawn from patent US20060233706A1, “Marked peptides having affinity for a phospholipid and uses” (COMMISSARIAT A L'ENERGIE, priority 2002, published 2006).
